According to US20140303084A1 (Biogen, published 2014):
Square brackets hold non-standard residues; d marks the D form. Ends that are not written are not given here. Orn = NCCC[C@H](N)C(=O)O; Dab = NCC[C@H](N)C(=O)O

target: human Factor IXa (human, UniProt P00740 47-191; P00740 227-461); experiment: cell-based or functional assay

Binder | EC50 [µM], FXa generation assay [µM]
RRAPGKLTDLASY[Dab]WLFWTGIA-OH (N-terminus assumed; SMILES CC[C@H](C)[C@H](NC(=O)CNC(=O)[C@@H](NC(=O)[C@H](Cc1c[nH]c2ccccc12)NC(=O)[C@H](Cc1ccccc1)NC(=O)[C@H](CC(C)C)NC(=O)[C@H](Cc1c[nH]c2ccccc12)NC(=O)[C@H](CCN)NC(=O)[C@H](Cc1ccc(O)cc1)NC(=O)[C@H](CO)NC(=O)[C@H](C)NC(=O)[C@H](CC(C)C)NC(=O)[C@H](CC(=O)O)NC(=O)[C@@H](NC(=O)[C@H](CC(C)C)NC(=O)[C@H](CCCCN)NC(=O)CNC(=O)[C@@H]1CCCN1C(=O)[C@H](C)NC(=O)[C@H](CCCNC(=N)N)NC(=O)[C@@H](N)CCCNC(=N)N)[C@@H](C)O)[C@@H](C)O)C(=O)N[C@@H](C)C(=O)O) [RRAPGKLT-Asp-LASY-Dab-WLFWTGIA-COOH] | > 10
PQTRDPSSRDRRAPGKLTCLASYCWLFWTGIA [PQTRDPSSRD RRAPG KLTCLASYCWLFWTGIA] | < 0.5
RRAPGKLCALASYACLFWTGIA-NH2 (cysteine pairing not given here) [RRAPGKLCALASYACLFWTGIA-CONH2] | > 10
RRAPGKLTDLASYKWLFWTGIA-OH [RRAPGKLT-Asp-LASY-Lys-WLFWTGIA-COOH] | < 0.5
RRAPGCLTALASYCWLFWTGIA-NH2 (cysteine pairing not given here) [RRAPGCLTALASYCWLFWTGIA-CONH2] | > 1
RRAPGCLTALASYAWLCWTGIA-OH (cysteine pairing not given here) [RRAPGCLTALASYAWLCWTGIA-COOH] | > 20
PNLLRVRTSEVRNPGKLTCLASYCWLFWTGIA [PNLLRVRTSE VRNPG KLTCLASYCWLFWTGIA] | < 0.5
RRAPGKLCALASYACLFWTGIA-OH (cysteine pairing not given here) [RRAPGKLCALASYACLFWTGIA-COOH] | > 10
RRAPGKCTALASYCWLFWTGIA-OH (cysteine pairing not given here) [RRAPGKCTALASYCWLFWTGIA-COOH] | > 1
NGALGFRSVVPRAAGKLTCLASYCWLFWTGIA [NGALGFRSVV PRAAG KLTCLASYCWLFWTGIA] | < 0.5
RRAPGKLCALASYCWLFWTGIA-NH2 (cysteine pairing not given here) [RRAPGKLCALASYCWLFWTGIA-CONH2] | > 1
RRAPGKCTALASYCWLFWTGIA-NH2 (cysteine pairing not given here) [RRAPGKCTALASYCWLFWTGIA-CONH2] | > 1
RRAPGKCTALASYAWCFWTGIA-NH2 (cysteine pairing not given here) [RRAPGKCTALASYAWCFWTGIA-CONH2] | > 1
RRAPGKLCALASYCWLFWTGIA-OH (cysteine pairing not given here) [RRAPGKLCALASYCWLFWTGIA-COOH] | > 1
RRAPGKCTALASYAWCFWTGIA-OH (cysteine pairing not given here) [RRAPGKCTALASYAWCFWTGIA-COOH] | > 1
RRAPGCLTALASYAWLCWTGIA-NH2 (cysteine pairing not given here) [RRAPGCLTALASYAWLCWTGIA-CONH2] | > 1
PRTTANRRSSRRAPAKLTCLASYCWLFWTGIA [PRTTANRRSS RRAPA KLTCLASYCWLFWTGIA] | < 0.5
RRAPGCLTALASYCWLFWTGIA-OH (cysteine pairing not given here) [RRAPGCLTALASYCWLFWTGIA-COOH] | > 1

Further lines, results first:

EC50 [µM], FXa generation assay [µM] | Binder
< 0.5 | RRAPGKLTCLASYCWLFWTTYASYATKPADTT [RRAPGKLTCLASYCWLF WTTYA SYATKPADTT]
< 0.5 | RRAPGKLTCLASYCWLFWTAVGGQPYMLLAWR [RRAPGKLTCLASYCWLF WTAVG GQPYMLLAWR]
> 10 | SKQGRPISPDRRAAGKLTCLASYCWLFGSGISLSRAPESAAP
< 0.5 | RRAPGKLTDLASY[Orn]WLFWTGIA-OH (N-terminus assumed; SMILES CC[C@H](C)[C@H](NC(=O)CNC(=O)[C@@H](NC(=O)[C@H](Cc1c[nH]c2ccccc12)NC(=O)[C@H](Cc1ccccc1)NC(=O)[C@H](CC(C)C)NC(=O)[C@H](Cc1c[nH]c2ccccc12)NC(=O)[C@H](CCCN)NC(=O)[C@H](Cc1ccc(O)cc1)NC(=O)[C@H](CO)NC(=O)[C@H](C)NC(=O)[C@H](CC(C)C)NC(=O)[C@H](CC(=O)O)NC(=O)[C@@H](NC(=O)[C@H](CC(C)C)NC(=O)[C@H](CCCCN)NC(=O)CNC(=O)[C@@H]1CCCN1C(=O)[C@H](C)NC(=O)[C@H](CCCNC(=N)N)NC(=O)[C@@H](N)CCCNC(=N)N)[C@@H](C)O)[C@@H](C)O)C(=O)N[C@@H](C)C(=O)O) [RRAPGKLT-Asp-LASY-Orn-WLFWTGIA-COOH]
> 1 | RRAPGKLTCLASYCWLFLTGWARVPLPPRPHP [RRAPGKLTCLASYCWLF LTGWA RVPLPPRPHP]
> 20 | RRAPGKLTCLASYAWCFWTGIA-NH2 (cysteine pairing not given here) [RRAPGKLTCLASYAWCFWTGIA-CONH2]
> 1 | RRAPGKLTCLASYCWLFWAGIAPHRPLKERVR [RRAPGKLTCLASYCWLF WAGIA PHRPLKERVR]
> 1 | RRAPGKLTCLASYCWLFYTGIAHGHPMEHRKS [RRAPGKLTCLASYCWLF YTGIA HGHPMEHRKS]
> 1 | RRAPGKLT[Orn]LASYDWLFWTGIA-OH (N-terminus assumed; SMILES CC[C@H](C)[C@H](NC(=O)CNC(=O)[C@@H](NC(=O)[C@H](Cc1c[nH]c2ccccc12)NC(=O)[C@H](Cc1ccccc1)NC(=O)[C@H](CC(C)C)NC(=O)[C@H](Cc1c[nH]c2ccccc12)NC(=O)[C@H](CC(=O)O)NC(=O)[C@H](Cc1ccc(O)cc1)NC(=O)[C@H](CO)NC(=O)[C@H](C)NC(=O)[C@H](CC(C)C)NC(=O)[C@H](CCCN)NC(=O)[C@@H](NC(=O)[C@H](CC(C)C)NC(=O)[C@H](CCCCN)NC(=O)CNC(=O)[C@@H]1CCCN1C(=O)[C@H](C)NC(=O)[C@H](CCCNC(=N)N)NC(=O)[C@@H](N)CCCNC(=N)N)[C@@H](C)O)[C@@H](C)O)C(=O)N[C@@H](C)C(=O)O) [RRAPGKLT-Orn-LASY-Asp-WLFWTGIA-COOH]
< 0.5 | RRAPGKLTCLASYCWLFWTTWTTAPTTPPLTT [RRAPGKLTCLASYCWLF WTTWT TAPTTPPLTT]
> 1 | RRAPGKLTCLASYAWCFWTGIA-OH (cysteine pairing not given here) [RRAPGKLTCLASYAWCFWTGIA-COOH]
> 1 | RRAPGKLTCLASYCWLFATGVTFPQIWAIPSP [RRAPGKLTCLASYCWLF ATGVT FPQIWAIPSP]
< 0.5 | RRAPGKLTCLASYCWLFWTGLLDYPTPQSHEP [RRAPGKLTCLASYCWLF WTGLL DYPTPQSHEP]
> 10 | RRAPGKLTCLASYAWLCWTGIA-OH (cysteine pairing not given here) [RRAPGKLTCLASYAWLCWTGIA-COOH]
> 1 | RRAPGKLTCLASYACLFWTGIA-NH2 (cysteine pairing not given here) [RRAPGKLTCLASYACLFWTGIA-CONH2]
> 1 | RRAPGKLTCLASYCWLFWAVIAPPKVKGTRQS [RRAPGKLTCLASYCWLF WAVIA PPKVKGTRQS]
> 1 | RRAPGKLTCLASYCWLFWTGIARWPSHRSGPS (not fully specified (C-terminus); cysteine pairing not given here) [RRAPGKLTCLASYCWLF WTGIA RWPSHRSGPS]
> 1 | RRAPGKLTCLASYCWLFVTGTAHAPRVAPAPA [RRAPGKLTCLASYCWLF VTGTA HAPRVAPAPA]
< 0.5 | SLISMTNPSGRRVPGKLTCLASYCWLFWTGIA [SLISMTNPSG RRVPG KLTCLASYCWLFWTGIA]
> 10 | RRAPGKLTCLASYAWLCWTGIA-NH2 (cysteine pairing not given here) [RRAPGKLTCLASYAWLCWTGIA-CONH2]
< 0.5 | RRAPGKLTCLASYCWLFWSGIAPQPPNMRPSV [RRAPGKLTCLASYCWLF WSGIA PQPPNMRPSV]
> 10 | RRAPGKLTKLASYDWLFWTGIA-OH [RRAPGKLT-Lys-LASY-Asp-WLFWTGIA-COOH]
